The target in test [1] is T1, biotinylated C-terminal Avitagged NDST1 (Homo sapiens, UniProt P52848, biotin on the C-terminal Avitag (BirA biotin-protein ligase)).
T1 construct: human N-deacetylase-N-sulfotransferase 1 (NDST1) with a C-terminal Avitag, made by PCR with tailed primers and subcloned into pOMNIBac; also called biotinylated NDST1; source: insect cells (baculovirus, pOMNIBac), purified; biotinylated with the BirA kit, then a final round of SEC; not shown: Avitag, C-terminal, kept
Nature of the test: SPR; biotinylated NDST1 immobilised on a BiotinCAP sensor chip (Biacore T200), nanobody titrated from 10 µM, 25 °C, 20 mM MES pH 6.5, 100 mM NaCl, 0.05% Tween-20; steady-state responses fitted to a 1:1 model. Particulars: both partners purified.

Test [2] has as its target T1, biotinylated C-terminal Avitagged NDST1. Nature of the test: BLI; biotinylated NDST1 immobilised on Octet SA biosensors, nanobodies in PBS-T, 25 °C, 1000 rpm; steady-state responses fitted to a 1:1 model. The following applies: both partners purified.
The target in test [3] is T2, solubilized recombinant NDST1 (residues 79-882), bifunctional heparan sulfate … (human, UniProt P52848).
T2 construct: human N-deacetylase-N-sulfotransferase 1 (NDST1), residues 79-882, truncated at P78/S79 to remove the N-terminal transmembrane helix and a linker region; secreted behind a honeybee melittin secretion peptide; 6xHis tag cleaved with TEV protease; also called NDST1(79-882); solubilized NDST1; not shown: 6xHis, N-terminal, cleaved
T2 sequence (P52848 79-882): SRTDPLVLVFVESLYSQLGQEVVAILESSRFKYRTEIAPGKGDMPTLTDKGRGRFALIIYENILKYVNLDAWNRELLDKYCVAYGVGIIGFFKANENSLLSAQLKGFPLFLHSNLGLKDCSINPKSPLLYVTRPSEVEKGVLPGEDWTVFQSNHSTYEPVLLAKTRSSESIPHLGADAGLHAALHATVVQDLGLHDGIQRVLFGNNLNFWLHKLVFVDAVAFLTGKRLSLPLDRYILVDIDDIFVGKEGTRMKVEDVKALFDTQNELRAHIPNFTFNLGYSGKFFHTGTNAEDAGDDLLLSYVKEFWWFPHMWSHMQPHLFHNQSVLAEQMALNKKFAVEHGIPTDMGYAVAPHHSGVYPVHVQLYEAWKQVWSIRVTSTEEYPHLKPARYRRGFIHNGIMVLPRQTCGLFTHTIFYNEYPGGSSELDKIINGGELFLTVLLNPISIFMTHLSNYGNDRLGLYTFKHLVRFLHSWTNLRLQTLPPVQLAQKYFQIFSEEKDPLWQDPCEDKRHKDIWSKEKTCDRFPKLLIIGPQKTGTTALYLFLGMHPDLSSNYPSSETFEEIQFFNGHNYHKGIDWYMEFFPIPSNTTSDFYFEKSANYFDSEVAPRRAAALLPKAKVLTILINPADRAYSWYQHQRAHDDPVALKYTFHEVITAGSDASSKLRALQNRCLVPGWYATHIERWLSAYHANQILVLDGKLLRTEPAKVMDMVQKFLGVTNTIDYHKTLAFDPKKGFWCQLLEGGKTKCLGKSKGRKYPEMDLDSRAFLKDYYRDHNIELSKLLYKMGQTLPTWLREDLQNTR
Nature of the test: differential scanning fluorimetry; NDST1 (1 µg) in 20 µL PBS pH 7.4 with 20X Sypro Orange, with 10.8 µM nAb; 25 to 95 °C. Particulars: both partners purified.

Test [4] addresses T2, solubilized recombinant NDST1 (residues …). The experiment in a line: cell-based or functional assay.
The target is the same in test [5]. Nature of the test: cell-based or functional assay. The source holds these as a separate data set.

T1 sequence (P52848 79-882): as above

B1: nAb1 (VHH)
VHH: QVQLVESGGGLVQAGGSLRLSCAASDRTFTTYAMAWFRRAPPGKEREFVASIRWDGFGTYYTDSVKGRFTISRDSAKNEAYLQMNSLRPEDTGVYYCAAGLLFGNTKGYDHWGQGTQVTVSS
notes: llama VHH from an NDST1-immunized library, selected by phage display; also called anti-NDST1 nanobody 1; source: E. coli WK6, periplasmic extract, purified (HisTrap, SEC)
On to B1, for which the Kd in test [1] is 2370 nM; in test [2], 2670 nM.

B2: nAb5 (VHH)
VHH: QVQLVESGGGLVQAGGSLRLSCAASGRTFSSYVMGWFRQAPGKEREFVAAISWSGGTTDYAGSVKGRFTISRDNDRKTMYLEMNDLKPEDTALYYCNFKETWPRTGDYWGPGTQVTVSS
notes: llama VHH from an NDST1-immunized library, selected by phage display; also called anti-NDST1 nanobody 5; source: E. coli WK6, periplasmic extract, purified (HisTrap, SEC)
Take B2: the Kd in test [1] was 570 nM. For the same molecule, the “stabilization of NDST1 thermal denaturation with 10.8 µM nAb” value (“stabilization” for short) in test [3] is roughly 2.6 °C. For the same molecule, the “KI of inhibition of NDST1 activity (fluorometric coupled enzyme assay with Sult1a1-K65E-R68G, K5 substrate; Morrison equation)” value in test [4] worked out at 3300 nM.

B3: nAb6 (VHH)
VHH: QVQLVESGGDLVQPGGSLRLSCAASKTIFVISDMGWYRQAPGKQRELVAMITSGGTTNYADSVKGRFTISRDNTQNTVWLQMNSLKPEDTAVYYCYARVERWRPTDSWGQGTQVTVSS
notes: llama VHH from an NDST1-immunized library, selected by phage display; also called anti-NDST1 nanobody 6; source: E. coli WK6, periplasmic extract, purified (HisTrap, SEC)
On to B3, for which the Kd came to 840 nM in test [1] and 470 nM in test [2].

B4: nAb13 (VHH)
VHH: QVQLVESGGGLVQSGGSLRLSCTASRRASSTIGWFRQAPGKEREFVAGINWSLETATYQDSIKDRFTISRDNANNTVYLQMNSLKPEDTAVYYCAASPYRVMGDTTLYPYWGQGTQVTVSS
notes: in PDB 8CHS nAb13 is modeled only as an all-Calpha chain derived from the nAb7 structure; llama VHH from an NDST1-immunized library, selected by phage display; also called anti-NDST1 nanobody 13; source: E. coli WK6, periplasmic extract, purified (HisTrap, SEC)
The molecule B4 returned a Kd in test [1] of 530 nM. The “stabilization” value in test [3] was roughly 1.9 °C. For the same molecule, the Kd in test [2] came to 240 nM. In test [5], the “fold enhancement of NDST1 activity in the coupled enzyme assay” value was roughly 2 fold and the “kcat of NDST1 with respect to K5 with 30 µM nAb13, against NDST1 alone (0.26 min^-1 vs 0.14 min^-1)” value was roughly 86%. In test [4], the “EC50 of enhancement of NDST1 activity (fluorometric coupled enzyme assay with Sult1a1-K65E-R68G, K5 substrate)” value came out at 450 nM.

B5: nAb7 (VHH)
VHH: QVQLVESGGGSVQAGGSLRLSCAASGFNVDDYAIGWFRQSPGKEREGVSCIGGDGTTYYENSVKGRFTVSSDKRDNTVYLQMNNLRPEDTAIYFCAADRSKYCVGKYFSTPSQYDFWGRGTHVTVSS
notes: llama VHH from an NDST1-immunized library, selected by phage display; Long CDR3 loop R98-F116; also called anti-NDST1 nanobody 7; source: E. coli WK6, periplasmic extract, purified (HisTrap, SEC)
In the case of B5, the Kd in test [1] was found to be 220 nM; in test [2], 120 nM. Besides, the “stabilization” value in test [3] was roughly 4.4 °C. Further, the “fold decrease in kcat/KM of NDST1 with respect to K5 with 30 µM nAb7, against NDST1 alone (0.06 vs 0.18 min^-1 mg^-1 mL)” value in test [5] was roughly 3 fold. Further, the “KI of inhibition of NDST1 activity (fluorometric coupled enzyme assay with Sult1a1-K65E-R68G, K5 substrate; Morrison equation)” value in test [4] came out at 240 nM.

The values are drawn from article PMC10864358, “Structural and mechanistic characterization of bifunctional heparan sulfate N-deacetylase-N-sulfotransferase 1” (Nature Communications, 2024).
